B1: OVCA2 (Homo sapiens) (protein)
chain: MAAQRPLRVLCLAGFRQSERGFREKTGALRKALRGRAELVCLSGPHPVPDPPGPEGARSDFGSCPPEEQPRGWWFSEQEADVFSALEEPAVCRGLEESLGMVAQALNRLGPFDGLLGFSQGAALAALVCALGQAGDPRFPLPRFILLVSGFCPRGIGFKESILQRPLSLPSLHVFGDTDKVIPSQESVQLASQFPGAITLTHSGGHFIPAAAPQRQAYLKFLDQFAE
B2: OVCA2 (Homo sapiens; D179A) (protein)
chain: MAAQRPLRVLCLAGFRQSERGFREKTGALRKALRGRAELVCLSGPHPVPDPPGPEGARSDFGSCPPEEQPRGWWFSEQEADVFSALEEPAVCRGLEESLGMVAQALNRLGPFDGLLGFSQGAALAALVCALGQAGDPRFPLPRFILLVSGFCPRGIGFKESILQRPLSLPSLHVFGDTAKVIPSQESVQLASQFPGAITLTHSGGHFIPAAAPQRQAYLKFLDQFAE

Experiments:
Experiment in all cases: purified protein
Format in all cases: biochemical, Homo sapiens
purified protein [1] = substrate: COCCOCC(=O)OCOc1ccc2c(c1)Oc1cc(OCOC(=O)COCCOC)ccc1C21OC(=O)c2ccccc21; settings: PBS, 0.1 mg/mL acetylated BSA, 25 °C
purified protein [2] = substrate: CCCCCCCC(=O)Oc1ccc([N+](=O)[O-])cc1; settings: PBS, 0.1 mg/mL acetylated BSA, 1% acetonitrile, 25 °C
purified protein [3] = substrate: CCCCCCCCCCCC(=O)Oc1ccc([N+](=O)[O-])cc1; settings: PBS, 0.1 mg/mL acetylated BSA, 1% acetonitrile, 25 °C
purified protein [4] = substrate: CCCCCCCCCCCCCC(=O)Oc1ccc([N+](=O)[O-])cc1; settings: PBS, 0.1 mg/mL acetylated BSA, 1% acetonitrile, 25 °C
purified protein [5] = substrate: CCCC(=O)Oc1ccc([N+](=O)[O-])cc1; settings: PBS, 0.1 mg/mL acetylated BSA, 1% acetonitrile, 25 °C
purified protein [6] = substrate: CCCCCCCCCC(=O)Oc1ccc([N+](=O)[O-])cc1; settings: PBS, 0.1 mg/mL acetylated BSA, 1% acetonitrile, 25 °C
purified protein [7] = substrate: COCC(=O)OCOc1ccc2c(c1)Oc1cc(OCOC(=O)COC)ccc1C21OC(=O)c2ccccc21; settings: PBS, 0.1 mg/mL acetylated BSA, 25 °C
purified protein [8] = substrate: CC(=O)Oc1ccc([N+](=O)[O-])cc1; settings: PBS, 0.1 mg/mL acetylated BSA, 1% acetonitrile, 25 °C

| Protein | Km (purified protein [2]) [µM] | kcat/Km (purified protein [2]) [M⁻¹ s⁻¹] | Km (purified protein [3]) [µM] | kcat (purified protein [3]) [s⁻¹] | kcat/Km (purified protein [3]) [M⁻¹ s⁻¹] | Km (purified protein [4]) [µM] | kcat (purified protein [4]) [s⁻¹] | kcat/Km (purified protein [4]) [M⁻¹ s⁻¹] | Km (purified protein [6]) [µM] | kcat (purified protein [6]) [s⁻¹] | kcat/Km (purified protein [6]) [M⁻¹ s⁻¹] | further results |
| --- | --- | --- | --- | --- | --- | --- | --- | --- | --- | --- | --- | --- |
| B1 | 6.1 ± 5.7 | 3800 ± 1800 | 29 ± 19 | 0.076 ± 0.01 | 2700 ± 950 | 17 ± 14 | 0.076 ± 0.01 | 4500 ± 1800 | 3.84 ± 1.1 | 0.025 ± 0.001 | 6800 ± 1000 | Km (purified protein [1]): 3.7 ± 0.8 µM; kcat (purified protein [1]): 0.0012 ± 0.0001 s⁻¹; kcat/Km (purified protein [1]): 330 ± 70 M⁻¹ s⁻¹; kcat (purified protein [2]): 0.023 ± 0.005 s⁻¹; Km (purified protein [5]): 2900 ± 100 µM; Km (purified protein [7]): 12 ± 5 µM; kcat (purified protein [7]): 0.0013 ± 0.0002 s⁻¹; kcat/Km (purified protein [7]): 100 ± 40 M⁻¹ s⁻¹; Km (purified protein [8]): 1400 ± 600 µM; kcat (purified protein [8]): 0.26 ± 0.03 s⁻¹; kcat/Km (purified protein [8]): 200 ± 50 M⁻¹ s⁻¹ |
| B2 | 2.0 ± 0.2 | 0.5 ± 0.3 | 1.1 ± 0.6 | 7.3e-05 ± 8e-06 | 69 ± 20 | 5.7 ± 1.9 | 4.6e-05 ± 4e-06 | 7.8 ± 1.4 | 3.2 ± 1.5 | 3.7e-05 ± 4e-06 | 11 ± 3 |  |
